# Literature values in paper PMC8619967.
# Where two headings read alike, the source gives them in different places.
# Tests used:
# [1] = molecular target: HIV-1 capsid (Human immunodeficiency virus 1) (UniProt O93182)
# [2] = molecular target: HIV-1 capsid (Human immunodeficiency virus 1) (UniProt O93182); remark: listed apart in the source
# [3] = molecular target: HIV-1 CA-NC nanotubes CA-NC (Human immunodeficiency virus 1) (UniProt O93182)
# Sequence of HIV-1 CA-NC nanotubes CA-NC (Human immunodeficiency virus 1) (O93182 133-433): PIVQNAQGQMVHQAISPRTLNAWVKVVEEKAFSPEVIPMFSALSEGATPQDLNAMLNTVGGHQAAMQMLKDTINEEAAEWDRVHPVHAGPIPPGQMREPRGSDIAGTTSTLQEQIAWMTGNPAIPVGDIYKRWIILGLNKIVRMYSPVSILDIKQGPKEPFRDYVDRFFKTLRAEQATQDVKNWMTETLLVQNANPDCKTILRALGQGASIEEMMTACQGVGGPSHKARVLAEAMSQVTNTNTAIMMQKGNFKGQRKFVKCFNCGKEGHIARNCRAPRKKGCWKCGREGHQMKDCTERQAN
# Sequence of HIV-1 capsid (Human immunodeficiency virus 1) (O93182 133-363): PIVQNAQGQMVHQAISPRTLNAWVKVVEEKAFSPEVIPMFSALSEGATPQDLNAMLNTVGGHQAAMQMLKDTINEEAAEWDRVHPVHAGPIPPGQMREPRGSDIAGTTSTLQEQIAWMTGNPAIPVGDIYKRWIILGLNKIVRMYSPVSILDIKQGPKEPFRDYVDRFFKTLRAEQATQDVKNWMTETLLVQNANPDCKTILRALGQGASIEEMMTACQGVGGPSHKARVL
# Sequence of TRN-1 (Q92973 whole entry): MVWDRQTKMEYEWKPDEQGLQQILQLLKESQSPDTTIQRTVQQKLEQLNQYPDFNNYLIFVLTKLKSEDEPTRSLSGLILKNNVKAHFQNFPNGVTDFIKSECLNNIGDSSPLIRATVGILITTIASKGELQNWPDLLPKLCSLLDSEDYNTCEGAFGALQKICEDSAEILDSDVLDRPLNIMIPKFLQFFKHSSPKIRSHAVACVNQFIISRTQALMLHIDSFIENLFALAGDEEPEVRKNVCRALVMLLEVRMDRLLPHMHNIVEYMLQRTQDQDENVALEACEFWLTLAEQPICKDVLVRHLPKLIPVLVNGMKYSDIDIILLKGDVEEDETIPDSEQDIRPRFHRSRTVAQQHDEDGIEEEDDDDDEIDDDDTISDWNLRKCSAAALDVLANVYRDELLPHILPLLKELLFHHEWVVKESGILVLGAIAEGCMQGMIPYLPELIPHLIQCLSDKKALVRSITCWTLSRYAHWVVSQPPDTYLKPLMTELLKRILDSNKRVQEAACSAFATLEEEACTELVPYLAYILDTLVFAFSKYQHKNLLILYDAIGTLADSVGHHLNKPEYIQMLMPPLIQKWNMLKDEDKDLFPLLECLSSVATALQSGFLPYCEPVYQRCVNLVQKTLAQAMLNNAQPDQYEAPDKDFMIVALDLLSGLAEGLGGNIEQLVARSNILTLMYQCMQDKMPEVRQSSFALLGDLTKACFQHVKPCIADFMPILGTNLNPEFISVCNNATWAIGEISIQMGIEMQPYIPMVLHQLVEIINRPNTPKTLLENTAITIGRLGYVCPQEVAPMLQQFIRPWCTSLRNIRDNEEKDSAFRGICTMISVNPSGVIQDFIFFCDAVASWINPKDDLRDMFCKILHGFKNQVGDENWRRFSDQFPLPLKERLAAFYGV
# Sequence of NUP358 CycH (P49792 3067-3223): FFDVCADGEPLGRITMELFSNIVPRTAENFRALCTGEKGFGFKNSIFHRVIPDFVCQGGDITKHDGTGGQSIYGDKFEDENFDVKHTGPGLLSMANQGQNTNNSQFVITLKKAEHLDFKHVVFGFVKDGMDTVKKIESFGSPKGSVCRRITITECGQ
substance,measurement,setting,value
NUP358 CycH (from UniProt P49792),Kd,[1],200 µM
NUP153 FG-motif (from UniProt P49790),Kd,[2],50 µM
TRN-1 (from UniProt Q92973),Kd,[3],0.07 µM
